For two molecules, ECL signal results are on record in US20120316071A1 (published 2012).

In test [1] the target is T1, rHuman EGF R/Fc Chimera, CF (R&D Systems Cat#344-ER) (human, UniProt P00533 25-645).
T1 construct: Bought recombinant protein; also called epidermal growth factor receptor; not shown: Fc portion of the purchased chimera
The test can be described thus: ECL Multispot (MSD), antigen spotted on plate, 10 nM Fab; blank spot of this well 306.

Test [2] concerns the target T2, rHuman ErbB2/Fc Chimera, CF (R&D Systems Cat#1129-ER) (human, UniProt P04626 23-652).
T2 construct: Bought recombinant protein; also called human epidermal growth factor 2 receptor; not shown: Fc portion of the purchased chimera
The test is described as above.

Test [3] has as its target T3, rHuman CD44/Fc Chimera, CF (R&D Systems Cat#3660-CD) (human, UniProt P16070 21-220).
T3 construct: Bought recombinant protein; not shown: Fc portion of the purchased chimera
Described as above.

Test [4] has as its target T4, rHuman HGF R/c-MET/Fc Chimera, CF (R&D Systems Cat#358-MT/CF) (human, UniProt P08581 25-932).
T4 construct: Bought recombinant protein; also called HGF R/Fc; hepatocyte growth factor receptor; not shown: Fc portion of the purchased chimera
The test is described as above.

In test [5] the target is T5, rHuman P-Cadherin/Fc Chimera, CF (R&D Systems Cat#861-PC) (human, UniProt P22223 108-654).
T5 construct: Bought recombinant protein; not shown: Fc portion of the purchased chimera
The test is described as above.

In test [6] the target is T6, rHuman Notch-1/Fc Chimera, CF (R&D Systems Cat#3647-TK) (human, UniProt P46531 19-526).
T6 construct: Bought recombinant protein; the chimera holds only a part of it; not shown: Fc portion of the purchased chimera
The test is described as above.

Test [7] deals with T7, rHuman IGF-1 sR, CF (R&D Systems Cat#391-GR) (human, UniProt P08069 31-932).
T7 construct: Bought recombinant soluble receptor; The column head prints only 'IGF-1'; also called insulin-like growth factor-1 soluble receptor
Described as above.

Test [8] has as its target T8, rHuman Erythropoietin R/Fc Chimera, CF (R&D Systems Cat#963-ER) (human, UniProt P19235 25-250).
T8 construct: Bought recombinant protein; also called EPO R; EPO R/Fc; not shown: Fc portion of the purchased chimera
T8 sequence (looked up): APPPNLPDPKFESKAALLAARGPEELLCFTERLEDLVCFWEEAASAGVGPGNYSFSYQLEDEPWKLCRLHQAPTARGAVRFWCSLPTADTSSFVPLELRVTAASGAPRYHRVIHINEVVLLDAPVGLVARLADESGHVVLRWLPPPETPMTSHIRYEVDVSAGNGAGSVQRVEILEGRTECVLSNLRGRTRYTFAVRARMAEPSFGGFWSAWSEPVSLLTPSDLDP
The description is as above.

The target of test [9] is T1, rHuman EGF R/Fc Chimera, CF (R&D …). Briefly: ECL Multispot (MSD), antigen spotted on plate, 10 nM Fab; blank spot of this well 214.
The target of test [10] is T2, rHuman ErbB2/Fc Chimera, CF (R&D …). The test is described as above.
For test [11], the target named is T3, rHuman CD44/Fc Chimera, CF (R&D Systems …). The test is described as above.
Test [12] deals with T4, rHuman HGF R/c-MET/Fc Chimera, CF (R&D …). The description is as above.
The target of test [13] is T5, rHuman P-Cadherin/Fc Chimera, CF (R&D …). Described as above.
The target of test [14] is T6, rHuman Notch-1/Fc Chimera, CF (R&D …). The description is as above.
For test [15], the target named is T7, rHuman IGF-1 sR, CF (R&D Systems …). The test is described as above.
Test [16] concerns the target T8, rHuman Erythropoietin R/Fc Chimera, CF …. Described as above.
For test [17], the target named is T9, rHuman HGF R/c-MET/Fc Chimera, CF (R&D Systems Cat#358-MT/CF) (human, UniProt P08581 25-932).
T9 construct: Bought reagent; also called HGF R/Fc; hepatocyte growth factor receptor; Fc part of the bought chimera not given
Briefly: ECL Multispot (MSD), 10 nM Fab; blank 219.

In test [18] the target is T10, rHuman Erythropoietin R/Fc Chimera, CF (R&D Systems Cat#963-ER) (human, UniProt P19235 25-250).
T10 construct: Bought reagent; also called EPO R; EPO R/Fc; Fc part of the bought chimera not given
T10 sequence (looked up): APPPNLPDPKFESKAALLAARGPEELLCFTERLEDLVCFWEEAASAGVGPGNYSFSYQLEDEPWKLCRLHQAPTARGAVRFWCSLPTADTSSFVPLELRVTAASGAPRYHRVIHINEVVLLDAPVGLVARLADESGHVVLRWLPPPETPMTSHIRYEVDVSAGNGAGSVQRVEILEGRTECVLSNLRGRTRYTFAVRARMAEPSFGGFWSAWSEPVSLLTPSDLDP
Briefly: ECL Multispot (MSD), 10 nM Fab; blank 219.

In test [19] the target is T11, rHuman IGF-1 sR, CF (R&D Systems Cat#391-GR) (human, UniProt P08069 31-932).
T11 construct: Bought soluble receptor; also called insulin-like growth factor-1 soluble receptor
The test can be described thus: ECL Multispot (MSD), 10 nM Fab; blank 219.

The target in test [20] is T12, rHuman ErbB2/Fc Chimera, CF (R&D Systems Cat#1129-ER) (human, UniProt P04626 23-652).
T12 construct: Bought reagent; also called human epidermal growth factor 2 receptor; Fc part of the bought chimera not given
The test can be described thus: ECL Multispot (MSD), 10 nM Fab; blank 219.

For test [21], the target named is T13, rHuman CD44/Fc Chimera, CF (R&D Systems Cat#3660-CD) (human, UniProt P16070 21-220).
T13 construct: Bought reagent; Fc part of the bought chimera not given
The test can be described thus: ECL Multispot (MSD), 10 nM Fab; blank 219.

The target of test [22] is T14, rHuman P-Cadherin/Fc Chimera, CF (R&D Systems Cat#861-PC) (human, UniProt P22223 108-654).
T14 construct: Bought reagent; Fc part of the bought chimera not given
The test can be described thus: ECL Multispot (MSD), 10 nM Fab; blank 219.

The target of test [23] is T15, rHuman EGF R/Fc Chimera, CF (R&D Systems Cat#344-ER) (human, UniProt P00533 25-645).
T15 construct: Bought reagent; also called epidermal growth factor receptor; Fc part of the bought chimera not given
The test can be described thus: ECL Multispot (MSD), 10 nM Fab; blank 219.

Test [24] deals with T16, rHuman Notch-1/Fc Chimera, CF (R&D Systems Cat#3647-TK) (human, UniProt P46531 19-526).
T16 construct: Bought reagent; Fc part of the bought chimera not given
The test can be described thus: ECL Multispot (MSD), 10 nM Fab; blank 219.

B1: Fab VH1-46_IGHD6-6*01_IGHJ1*01 S102A/S103P/S104F (APF) & L6_IGKJ1*01 (Fab, V domains shown)
VH: QVQLVQSGAEVKKPGASVKVSCKASGYTFTSYYMHWVRQAPGQGLEWMGIINPSGGSTSYAQKFQGRVTMTRDTSTSTVYMELSSLRSEDTAVYYCAREEYAPFSAEYFQHWGQGTLVTVSS
VL: not shown
notes: Tested as a Fab expressed in E. coli: the heavy chain from Plasmid A (CH1, His6 and Flag tags), the kappa light chain from Plasmid C (CL kappa); also called H:APF & L:wt; APF triple mutant
As for B1, the ECL signal was found to be 277 in test [1]; 378 in test [2]; 262 in [3]; 317 in test [4]; 422 in test [5]; 370 in test [6]. Further, the ECL signal amounted to 207 in test [7]; 312 in [8]; 138 in test [9]; 202 in test [10]; 199 in test [11]; 190 in test [12]. The ECL signal in test [13] worked out at 152; in test [14], 189; in [15] it was 190; in [16], 179.

B2: Fab VH1-46_IGHD6-6*01_IGHJ1*01 S102A/S103P/S104F A106E & L6_IGKJ1*01 (Fab, V domains shown)
VH: QVQLVQSGAEVKKPGASVKVSCKASGYTFTSYYMHWVRQAPGQGLEWMGIINPSGGSTSYAQKFQGRVTMTRDTSTSTVYMELSSLRSEDTAVYYCAREEYAPFSEEYFQHWGQGTLVTVSS
VL: not shown
notes: Tested as a Fab (CH1 with His6/Flag tags, kappa CL); also called APF A106E
In the case of B2, the ECL signal in test [17] turned out to be 212; in test [18], 204; in test [19] it was 312; in test [20], 189; in [21] it was 192; in [22] it was 308. In addition, the ECL signal is 226 in [23] and 156 in test [24].
